Data published in the DeepSol protein solubility set.

Experiment: soluble on expression in E. coli; label from the status in PepcDB or PDB records

Sequence	soluble on expression in E. coli
MASKLRRYIMNTTSLSLTPLLRHSVGFERFNDLFESMRNADDSTYAYPAYDIEKHGEDSYTITMAVPGFQESDLNIMVQNDQLTVSGRIQEKETKESEYLHRSIVTRAFEQTFRLADHMQVTGAEIKNGLLSIGLIREIPEEAKPRIIPIKSISDQESNKKGKTLEPESKKKISN	not soluble
MGSDKIHHHHHHMPLLDVRNLTIELDTPHGRVRALEKVSLTLNAGEIHGLVGESGSGRSLLARAILGIPGPNWTITADRMMWDGNNLMAMSSKERRNLMGSDMAMIFQDPSGSLDPAQTVGSQLMQAMPKNPNAYFWQKRRHARLTAQKWLHKVGIKNPRQVMSSYAWELSEGECQKVMIAMAVANQPRLLIADEPTSSMELSTQAQIFRLLSQLNQLQNVSILLISHELETLAQWCDHLSVLYCGQVMESGPTDEVIKQPYHPYTKALLDNMPDYSGSGGHKAIMPTLPGSAPALQHLPIGCRLGPRCPEAQKKCVNQPNLSHIKDRYFACHFPYHGETHNDDPTA	not soluble
MIVIFVDFDYFFAQVEEVLNPQYKGKPLVVCVYSGRTKTSGAVATANYEARKLGVKAGMPIIKAMQIAPSAIYVPMRKPIYEAFSNRIMNLLNKHADKIEVASIDEAYLDVTNKVEGNFENGIELARKIKQEILEKEKITVTVGVAPNKILAKIIADKSKPNGLGVIRPTEVQDFLNELDIDEIPGIGSVLARRLNELGIQKLRDILSKNYNELEKITGKAKALYLLKLAQNKYSEPVENKSKIPHGRYLTLPYNTRDVKVILPYLKKAINEAYNKVNGIPMRITVIAIMEDLDILSKGKKFKHGISIDNAYKVAEDLLRELLVRDKRRNVRRIGVKLDNIIINKTNLSDFFDI	soluble
MSLKISEVATPNFLLDLDQLEKNIDKIQQICTNNNKQLWPMLKTHKSTYIARLQKNAGASGFLVGTLDEGEALIKAGFEDIMLAYPYMGEVNINRIVTMASKINLICATDNIECAKAYSEAFSKSKIECKLLIIVDCGLHRFGVEPEKVVELATEISKLENIKIVGISSHPGQVYGCSSPEGVPDVCVQEDSSMEKAYKALTDNGFNIEIVASGSTPTVESEAACKTITAVRPGNYVYYDAIQIGLGCATEDMCALTVVCTVISKNSSGYYLIDCGSKCLGLDKGAHGNSSIVGYGRVCGHPELTIDSLSEEVGKIKVNGETDIKIGDRIRIIPNHSCSTANLTSNLLGFRGDTIEKVIEVDIRENSEGHHHHHH	soluble
MGHHHHHHHHHHSSGHIEGRHMKLEFMNLLSENKKENYYYCGENKVALVTGAGRGIGREIAKMLAKSVSHVICISRTQKSCDSVVDEIKSFGYESSGYAGDVSKKEEISEVINKILTEHKNVDILVNNAGITRDNLFLRMKNDEWEDVLRTNLNSLFYITQPISKRMINNRYGRIINISSIVGLTGNVGQANYSSSKAGVIGFTKSLAKELASRNITVNAIAPGFISSDMTDKISEQIKKNIISNIPAGRMGTPEEVANLACFLSSDKSGYINGRVFVIDGGLSP	soluble
MKSDWSTDFFHQSQTPNPYPPIVQQQQQPPHTSSSFFNTNHQLNSHYSSPIHQPPTSLHQPIPMMQNQFKASPPQSDQETAPTTPGSGSGGQMKGERCVGCGSESAIRVHYGASSCHGCKAFFRRSVFEGRVYMCSADNHCDITNESRNRCRACRLRNCLEGGMNPKHVREERSKIERMPGNTCTVSAANGVSHSSSAASASPEHKFSFSLSTIAPSTSTGSFSSGSQPAPIESTNSSGSEAEVLDRKLIQENQLTLFMVALEKQTEQLTDDDVKDNDVMGAWSRDITLTFGLQHPQMVIKRLPLKYSCDRIMEAADLYLSWYRSFVFAADWAMGIPEFRVLPLADQTTLFKQNFMAFGWITFAYKCFELKQHLTGMPLGNGAYIPYNDEDQKKLPERWAQTYGVVCRKLIDLIVKAMIELQITEEEYCLIKTISLFQQDCILSEAGQGICSRMRDRLLDALSAHIEKRYPYHTTSQRMTRALKISLMLPSFSHIGQVESTLITQLTAADLHQLSGVPMEICTAQTTL	not soluble
RVSLLKRKYKRVTTIAERTRRAQSETDRRNYTAASKARTQAQRSSKPQRTRASSRSRRDNSVTVEELMRRRQEQQQTGAKSFAPRPTRTAAQREAAERDLTRRLVNPDPEIHRTRTFDDDLYS	not soluble
MRSFIISSALLVILVQCGYPVAENSYPTTPSYPTPPPSYPTPKKYPVAPTYPSPPAYAQKPSYSAPPPPAPSVYSSSSFSDNEVASDSEYTTASPNSEYRKRAKARTAHNRKFQRRALTPIRRFQQKKQ	not soluble
MGSDKIHHHHHHMENYQLRIAHLYGDLMNTYGDYGNVIAIKYYAKQIQVETDYHLISLGDSFKADDYDFVIFGGGQDYEESVTAKDLPSKSDEIKKYIENNDSLLAVCGGFQLLGTTMEFANGKIINGIGAMSHHTVNLNSSELFDNMRGKRLIGNIQIKNNESGETYHGFENHQGRTFLGKGEKALGTVVSGNGNNGDDKTEGVIYKQVYGTYFHGPILTRNGNLAKRILKNALLKRYPDIDWQAKLDGIPTESF	not soluble
GPGSMIRTTAAAARLPQSTQGWVPLMRRALEFPIDSVTFPSHFYLHTVTNGTASTVGFSPQKEPVGLTALRQCAVLVLLSPAATGNGFQDMCITLTKRTATMGSHKSEMSFPGGHVDDDETLRNAAQRETLEEVGLPPSEYEIIGSLTPITTNALSARVTPFVAVATSPAQPYRASPVEVDSIHYLHMSMLLLSASTGHARVIKYRSFTSDRPCFFPCFFASPAQTVVSSAVCRSPKATGVADDCGFDPMLPEDF	not soluble
MKARKRKEQTFHEYFKEWVDLYKVGAIRSITLQKYYVTEQKIQELVPDLKIKDLDRYTYQQLLNSYAVTHEKQTTMDFHHHLKGAILDAVDEGVISQNPTRKIVIKGKTPRPKKAKFLNQFEVQALLKELNLKEDINWDWFILLIIKTGLRFSEALALTPSDFDFSKQKIIINKTWDYKMVTGSFQPTKNESSNRKIQIDWQLAMQFSQLIKMKDPDKPIFVKSRVFNSTINNRLKVLCENANIPTITVHSLRHTHASLLLFAGVSIASVANRLGHSSMTTTQETYLHIIQELENQDNDKIIRHLSMLM	not soluble
ARSAYSYIREAWKRPKEGQIAELMWHRMQEWRNEPAVVRIERPTRLDRARSLGYKAKQGIIVVRVAIRKGSSRRTRFNKGRRSKRMMVNRITRKKNIQRIAEERANRKFPNLRVLNSYSVGEDGRHKWHEVILIDPDHPAIKSDDQLSWISRTRHRLRTFRGLTSAGRRCRGLRGQGKGSEKVRPSLRVNGAKA	soluble
MKALARFGKAFGGYKMIDVPQPMCGPEDVVIEIKAAAICGADMKHYNVDSGSDEFNSIRGHEFAGCIAQVGEKVKDWKVGQRVVSDNSGHVCGVCPACEQGDFLCCTEKVNLGLDNNTWGGGFSKYCLVPGEILKIHRHALWEIPDGVDYEDAAVLDPICNAYKSIAQQSKFLPGQDVVVIGTGPLGLFSVQMARIMGAVNIVVVGLQEDVAVRFPVAKELGATAVVNGSTEDVVARCQQICGKDNLGLVIECSGANIALKQAIEMLRPNGEVVRVGMGFKPLDFSINDITAWNKSIIGHMAYDSTSWRNAIRLLASGAIKVKPMITHRIGLSQWREGFDAMVDKTAIKVIMTYDFDE	soluble
MGSDKIHHHHHHCELDRDPEGKDFQQPYTSFVQTKQNRDGLYALLRNTENPRMHFYQELQSDMYCTTITDGNSLAPFVNWDLGILNDHGRADEDEVSGIAGYYFVYNRLNQQANAFVNNTEAALQNQVYKNSTEIANAKSFLAEGKVLQALAIWRLMDRFSFHESVTEVNSGAKDLGVILLKEYNPGYIGPRATKAQCYDYILSRLSEAIEVLPENRESVLYVSRDYAYALRARIYLALGEYGKAAADAKMVVDKYPLIGAADASEFENIYRSDANNPEIIFRGFASATLGSFTATTLNGAAPAGKDIKYNPSAVPFQWVVDLYENEDFRKSVYIAKVVKKDKGYLVNKFLEDKAYRDVQDKPNLKVGARYFSVAEVYLILVESALQTGDTPTAEKYLKALSKARGAEVSVVNMEALQAERTRELIGEGSRLRDMVRWSIPNNHDAFETQPGLEGFANTTPLKAQAPVGFYAYTWEFPQRDRQTNPQLIKNWPI	not soluble
DGYIGVMIDDLVTKGTIEPYRLLTSRAEYRLILRHDNADMRLTEMGREIGLVDDERWARFEIKKNQFDNEMKRLDSIKLKPVKETNAKVEEMGFKPLTDAVTAKEFLRRPEVSYQDVVAFIGPAAEDLDDKIIELIETEIKYEGYISKAMDQVAKMKRMEEKRIPANIDWDDIDSIATEARQKFKLINPETIGQASRISGVNPADISILMVYLEG	not soluble
MKVLVSPMSVAEAIEAIEGGADIIDVKNPAEGSLGANFPWVIREISELAKKYGKEISATTGDMPYKPGTASLAALGAAVAGADYIKVGLYGVKNAEEAYEMMVGVVRAVKDFDSSKKVVAAGYGDYYRISSVSPLDLPEAVAKAGADIVMVDTAIKDGTSLFDHMKIGDIESFVKLARDNGLMVALAGNISWNHIETLKELSPDIIGVRSIVCEGDRSSMIKRELVVKLMEAVHG	not soluble
MFPRALAIGTPAQHKATEAPVTSTSASGLARFNTLEETAALAELHEACAATAWARHLLAARPFATAEDLYAASDAAMAELSAEDLAEAMAGHPPIGRPKPGDATSSREQAGMAGAAEELKAEMLELNLAYQDKFGHVFLICATGRTGEQMRDAALERIGNSPEQEREIVRTELGKINRIRLTRLVEQDARPAAALEHHHHHH	soluble
MGSDKIHHHHHHSHKYTAITPGVEWLDTNNEKINAHGGGILYHEGIYYWYGECKSDSTYWNPNVPGWECYRTEAGGVNCYSSKDLLNWKYEGLVLQPEISDTQSDLHPSKVLERPKVIYNDKTKKFVMWLHVDSDDYNKAAAGVAVSDSPTGVFTYLGSMHPNGQISRDMTLFKDDDGKAYHIYSSEQNSTLYISLLSDDYLKPSGTFTRNFAGKFREAPAVFKHNGLYYVISSGCTGWSPNEAEYAVATQILGPWTVKGNPCVGKDADKTFYGQSTHVLPIQGKKDAYIAMFDKWNKTDLIHSTYIWLPIQFREDGSMAIQWLDSWSPDTYEF	not soluble
MKVNIDPTAPTFATYRRDMRAEQMAEDYPVVSIDSDALDAARMLAEHRLPGLLVTAGAGKQYAVLPASQVVRFIVPRYVQDDPLLAGVLNESTADRCAERLSGKKVRDVLPDHLVEVPPANADDTIIEVAAVMARLRSPLLAVVKDGSLLGVVTASRLLAAALKT	soluble
MSNLVLSLDISTSGTGWALFKGSDLIQSGVLKHKSKSYFERGRYMASQLRLIQSRALKKYDCYFSTIAVEKNSVMGPNQQSMLKIGIVTGIILGRLIADNVVFINVSTWRKYWKFSYKDRSKKSMKLQSKIKVEQEFNKSVKDDEADAILIGSYYVNQGYLDELETHDYY	soluble
MANSFTFWNDCVEPEDLEEMWMDPAVSAEWIDVGETKGQKVHLSRDPDGQPYLTQTEMRAVSDITVRRHFDSILDSEMICAIAELESDRKPLIMRYSKKTKETGLGILQVFEKTAAWLAGGQGYQAYNVDDNPDLLHKPFINVYFGAAYLKWLTDYQNNQRSEEFVVRAYNGGTKKATHKSTLPYWKRYLAVKESLPSRKHGDAGPSSFRPTNPASPGSNTDFTYWDSRASPEDMEDMWNQSEICKEWTKSKEERGKVRFSQDGEKRPYLSRGELKAVAEIIVSKYFSTKGIRVPLVCAIADTVCMRFVNGIKKHVGILGVDYSTASWLYSELGYRAYRVDSADDLTKPFISMYFGVAYLVWLSEYEGSQRSNQFIVQAYMKGPDHVDLEESCPLWLKFEQALSYYEESKRDSGSCVIL	not soluble
